Consider 2 molecules from publication PMC7334584 (Proceedings of the National Academy of Sciences of the …, 2020).

The chains are these.
B1: Sulfolobus acidocaldarius Rad50 (enzyme, UniProt O33600 1-886, looked up)
chain: MIIREIRLQNFLSHEDTTVKFEGSINVIIGNNGAGKSSIIDGILFGLFKRTNRDIGKNEELIKKGKKSGQVSIKFEINGDTYLIDRNVGETSRDTISLLKEGKIITLARQSTTVNNKIKEILGFDHKILMSTTIIGQGSVESVFSDFPEVMKELLKINKLEMLRESNGPIHSLIKVLTDRIRSLQSIKDILKREEAEIDRLKKEIEEIKVKLENIEREAKEKEDELNQYNTEFNRIKEIKVQYDILSGELSVVNKKIEEIALRLKDFEEKEKRYNKIETEVKELDENREKINTISSFKSILVQIDSLKSQINVVENDLKRKKEKLKRKKELEEKEKQYEEIEKRKKELEEKEKQYEEIEKRLTYVLKNIERQKNEIEKLNYVDTQDLENKIKDVSDRINQIDNELKGLLDRRGDLNGRKEQTLKIYNNLNSIEDDRCPICGRPLDSEHKAKIREEIKVQLLELNKQITALQARINSLIKEREELEATRNKLQLELQKRSKEKGIYEAKLKELQRLEEEKNKLQNEILSLLSYHQEFENIAEKEKELIDYHEEYLKNSDILEEDIQEQEQRLNELNSKLSELEKSYNDYKAKYQFLPADLKSLVSLEERIRRRISELEKLKIEYERLKEEITRMKGLKEEYEKLKEEEDALLNRISELGYSEKRYKQLEEIIDKLSKILSGIEADKGKIKGSLEEKIKNIEEKERNIEELRNKMNEESKLNLGISKLQKLREVLDNKHLQSHIMNIVRNQIENNVNEVIAKFDLSFSAVEIDFVGKSELYVYTASGQKIHINALSGGERISIALALRLAIAKALMNQFSTLILDEPTVNLDEYRRKELIDVIRSAIEIVPQIILVTHDQELIQAGDYIIRVEKKGDTSKVEVSSYDR

The series “atomic force microscopy” concerns the molecule itself. Nature of the series: atomic force microscopy.
The target of series [1] is B1. Nature of the series: atomic force microscopy.

With B1, the binding result in the series “atomic force microscopy” is reported as “binds”.

B2: Sulfolobus acidocaldarius Mre11 (enzyme, UniProt Q8NKQ0 1-382, looked up)
chain: MQLLHISDTHLGKRQYNLESREKDVYDTFTQLIDIAINEHVKAVIHTGDLFDVNNPPNRAKLHAIKELKRLKDHNIPFICIAGDHDSPKRKEEIYPQRILEEFNLIKILQKIDNRVKLENVEVYGISHISNVSVNDLKEQLSKVKPETRKSILMLHQGIRTYLPYQGAWQIELSDLPKGFSLYAVGHLHSRRKDYLDGGALIEIAGSPDIMREEEIEDYQKSKKGATLIDMSGDLPSINYINVNIRDQLVLDINVDKIEQSIESVIQKLKENVKNDKKPILHIELEGTVPIRKDVLMTKLQALRDYVEHYRIYKNNIVSIKEENLKTKLKTTYSSLNDIIADYLKGIGYTDEETKIIIDIINEEDEKKVEELLKKFAGVEDK
In the case of B2, the binding result in series [1] is listed as “binds”.
